The record followed here is a protein production outcome set (Wang et al. 2014).
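Further: failed if final PepcDB status was selected cloned or expressed and not failed if soluble or beyond.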

A short description of the data set: label from the status in PepcDB records.
In the case of “MKKKLLNYLILLACLATVSVSCSGSAQAAVLGDDYPFSWKYGGFGVDPWTMYWRQCTSFAAYRLSNTNGFTLPIGYGNAITWGNIARANGHRVDMNPAVGSIAWFSAGVNGAGHMGHVAWVAEVHGDQVTIEEYNYDAGQGPEKYHKRSFHKSQVSGYIHFKDLESGTQNGNPTNSSIKVGDSVRFTGTFRVTSVSGNTITSQDLAGGTPTKHNIVDPSPVLEVDAQGNPTSDQYLNPGETFTIPGNFKVLAIDPPSDGILVQIGNLKTWVTQSVLEKILEHHHHHH”, the protein production entry was “not failed”. “MKKKSLIILSIIVLIFVCITLYLTREHIMVFYKLITNGEVVKSYLERFGPWAAVIFFVFQILQVVIFFIPGEVIQAAGGYIFGALGGTLLSFFGIAVGSAILFYICQKFGKKLVQRFVPKDMYDKLEKILNSPKFKLILVILFFLPGAPKDSLIMVCALSNITIGHFIIFSMIGRIPALVASSFMGANLAEGNIVGVIIIGVIALIACALGVIFRKDVFKYMEKL”: the protein production result is “failed”. Consider “MKKLFFIFLGSCTFALGTLGIFLPLLPTTGFYLLTAFFWMRSSDKLYNKFLASSYYQKYIQEAFFEKKITRKGKWKLFISMFLLFAIPCLIVRNTLMTTTLAIVYLAHVIGLSWYWRPKKKALELDQE”, for which the protein production entry is reported as “failed”.

With “MKKLFPLLLLILSILVGCGKKEKHSVTEIAREKKRITALLYEKELPTDSVKQLYENSVQNKNLVGQMLFAIEVGKRMRNMSQYTDAMLYHQKGLNAALNLRDTIVAAQAWNHLGTDSRRIGALAEASDYHYKALSLIESFSGNQNRPAIKARSAALNGIGNINLELGYHDEAEKNFLKALQGEKELDSPLGQAINYANLGRIYRQRKEYDKARTYFLLSLEQNNMAENLMGIGLCSINLGEVDEEKGDYQKALQEYATAYKLMEQLSDRWHWLNSCIPMARINLKQGNERLYQHFISLAEGTAKEINSTSHLIEIYNLQYENLERKKEYKQALEAFCLSKTLSDSMSIAHKVSSIQETRFNYERNKSQKELEEIQQVSKAKQEKSKFILLSTLFALFISILLISVLTYAYRQGKKHNKLIKETDKLRSGFFTGITHEFRTPITVIQGLNEKMSSSPDLQASDRTELHKIIDRQSSHMLNLVNQLLDICKIRSGVSTPEWRNGDIVSFVQILIDSFAPYAQAQDITLELQPESKPIVVDFVPSYLQKIISNLLSNAIKYSLAGGRVVISLAKTKNEKNLIIRVADNGIGIDKTDQAHIFDIFYRGQSATEKHGSGVGLSFTNILVENLRGTIKVESQPGKGSAFTISIPTQNQSSSAEILPWLPSSDDIVMPVHIAPDDSPTSPMVAALNHRFEDERPTILLVEDNKDINLLVKLLLCDRYNVLSAANGKEGIALATEHIPDIIITDIMMPIMDGIEMTIRMKQSPLLCHIPIVALTAKSTEQDRLEGIKSGVVSYLCKPFSPEELLMRIEQLLKDRELLKKFYMQKLMLDRKPEEEPQPIDDSSMQFLLAAKDAVSGGIKQNPDFSAQDLAEKMCMSPSQLNRKLTSVVGCSTIGYIQQIKIKLACKLLADESKNISDISIEAGFSDPAYFSRTFKRYMNCSPSQYRQKLLAMPGSDKETV”, the protein production result is “failed”.

As for “MKKLILSALVLGGAMTFTAQAQNKAAEPAEEFFLEGRAMFIRQNYVGALDQFRLYRLHVGQEHALEVDYYSIIADYLLGADHDYVLSAVGNFLDNFPESIDKSRVRLLTGELMIRHEQYLRANTIFSDIDDRTLNDEDLAAYLLYYAYVRMQLSESNALAEQMLLKASESRGELGGRACLLLAAIQIEDGRIDEAEQTLSRLKNRPQFADEADAYIAEIQLLRGDYREAAEIADRLLSRNSPMRQRPQLLRVAGNAYYRLGDSNKTIDYLSDYSEKVGDRIAPADAYALGVTYYKQGLMKEALRPLAAATTDAGSLGAESALYLGQAQLAEGMTSEALMAFEKAATQDVNRPVREVGMYNMAMLMRSTGQSSFGQSVRIAENFLNEFPRSSHREQMAAILVESYFTGKDYNSSLRSIQKIAQPTASILAAKQFVLNRMAEQKEAAGYDSEALSFVSSSISMGNKGEYFPEAYFLRGNLRYRAGDFPTAAADYRAYISAAGDRDAANLPLGYYRLGYSLFNAERYDMALEAFKEYVSRSGIAPNLSADAYARIGDCRYMKRDFHGAREAYSMAYRVYPSGGDYALLRRARLEGLAKQYADQIQTLDKLIREFPDSRHLTAALYEKGCGAVLSGKHNVAEEAFNAVVKRSPDSREARQSSLQLGLLYYNTGRTKEAIRTYQRIIDRYPRSEETTVALSDLRSIYLEEDRIDEYSTYVRGLKDKVSIAPSETEQLGFLSAERKYRRRQPDARRDLEAYLERYPQGSDRHKAELYLADLDYQAGNADAAYNRYSRLVNSPGLPEDYKIDARLRLGRMQYERKEYKAALQSFQSVLDTDGAEAVRDQAVQGVTESAYADKDYRRVIDVIAGLKNQAALPHTLRLYRAKSYQALKMNREAIADYELLAEDFSTATGAEAVVMQAQLEMEAKRLSKAKSILEKFIAKSTPQQYWLARGFILLSDIYKKEGDTFTARQYLESLEKNYPNHEDDIHEQIAQRLE”, the protein production entry is reported as “failed”. On to “MKKLLFAIDDTEACERAAQYILDMFGKDADCTLTLIHVKPEFMLYGEAVLAAYDEIEMKEEEKAKLLTQKFSTFFTEKGINPFVVIKEGEPVEMVLEEAKDYNLLIIGSSENSFLNKIFASHQDDFIQKAPIPVLIVK”, for which the protein production result is “not failed”. As for “MKKLLTLFCLMLGLSSTQALAAADNPVELIKDGSRQVLDVLKQDNGKNTKQVRQQAEAIAVPLFDFPRMTALAVGLGWRQATPEQRNELTQQFQTLLVRTYSTTMTRFKTAQVSVQPNPVSGANGKDVTVKSSVTLPGNANPVAVDYVLNKGDKGWKIYNVSVEGASLVTVYRNSFNEEIRKNGVDGLIKLLQDKNAAPAPAAASAAKGKGLEHHHHHH”, the protein production result is reported as “failed”. The result for “MKKLNSKGIRLSELMEKWRRRKKGHFAVYTNEGKRFVLPLDYLNHPMLQVLLQMAEDEFGTTIDGPLKVPCDGSLMDHIIMLVRRSMSHDYDDVEKSSTSSTCKGASISSLFRGQSQLQSLVS” reads “failed”; that for “MKKLNTNKLTEEQVNLFKNNLVYLATVDADGNPQVGPKGSMTVLDPSHLQYLEKTKGEAYENIKRGSKVALVAADVPSHTAVRVLATAEVHEDDDYAKKVLAKTEFPNAFVVNLNIEEVFA”, “not failed”.

For “MKKLYRYVLFTFLLIFSQLSFANWDLTDNQPIEISAQATNIEADIRALPEQHFFSNNDYAQVKRLLSTTISQQKEHATALKEALATYREDSSNQNWIAVETVHQSLTSLNLSKEQLLKLTNSTTREQLTGFGPYGVTQFYSELSITKLNIEYYLHYQIRSFKNLLKDLTISPVPIISVIFKVLCVFFIFSWWMKNSSRLINDFKTSKLENGTKPNFFIRSIWYLTRAHKAIAWLLLITVTLRIVSTLPSLQHLIFLEIFTWWILGGSIAVSFILEFIYRNSKHNKKEIIALRLSTVRHYVWGIIVAGVILQISSRTLGQGTIYAWINSLMYLFFVLLTIHTLRKWKPTVFERIERVDPLPLSIQWAKRNQKTFLISIAATACGAAWLSWRALQHSIIALLSQYAAFSHALAYLFRIEVAKQTEVAREQSNLVRVKGTAAFDYIAPGSEDSELIEDYAKDEMSALSRYLLTESPAVCVLSGERGVGTTTLLNRILNKVKNATPIYINCPYDGYSALLPELAKQLGLDEESSERDILQYLRNSDTCYLLAFDSAQRLVKPKVNGLADLMKLTNLLRRARKSHRVVLAIEKSCWRFIDRARGERLLFDLVTFMPKWDEKQIGQLLESRITLSEGQPTISFDGLVLPRQWDEENLTEEERARNGFYRILWDYSDGNPTVALRFFRLSLHRDKDTDAILVRLFRAPHSDDLETMPKPMLAVLRSIVQLEVASPADVCDCSRLSMAEVISTLRYFQSRGYIEWSDDKARISDHWFRHITNVLHRQHLLVK”, the protein production result was “failed”.

Turning to “MKKNYTYPFTAIVGQEEMKLALILNIINPAISGVLIRGEKGTAKSTAVRALADILPEIEVIAGIPFNLAPDEDDETIRECFTVTGHAMPDPDNLEVTMHKVQVVELPVGATEDRVVGTLDLEHALKTGEKRIEPGLLAAAHRGILYVDEVNLLDDHVVDVLLDSAAMGVNTIEREGVSFSHPARFTLVGTMNPEEGELRPQLLDRFGLCVHVGGIADPQDRVTVMERRFAFEQDQERFCSEWQGESSKLAERIVAARELYPSVTISREHLLGIAKSCLKVGVDGHRGDIIIMKTAKTIAAWEGRHCVGSDDIDRAVALALPHRIRRQPLQDMVMDVGSLLGSKCTTN”, the protein production result is listed as “failed”.

For “MKKQIALVALLFLGMSCFNASAQFKKFNLGKAIQAGKDAAQAISLSDADIAAMSKEYMEWMDKHNPLTKPDSEYGKRLERLTGNIKEVDGMKVNFGVYEVVDVNAFACGDGSVRICAGLMDVMTDEEVMAVIGHEIGHVIHTDSKDAMKNAYFRSAVKNAAGAASSQVAKLTDSELGAMAEALAGAQYSQKQEYEADAYGVEFCVKNNIDPYGMYKSLNKLLELSNGAPASSYMQRMFSSHPDTAKRVARAKELADKYKQLEHHHHHH”, the protein production entry was “not failed”.

Turning to “MKKQRNLRSMAAQAVEQVVEQGQSLSNILPPLQQKVSDKDKALLQELCFGVLRTLSQLDWLINKLMARPMTGKQRTVHYLIMVGLYQLLYTRIPPHAALAETVEGAIAIKRPQLKGLINGVLRQFQRQQEELLAEFNASDARYLHPSWLLKRLQKAYPEQWQSIVEANNQRPPMWLRINRTHHSRDSWLALLDEAGMKGFPHADYPDAVRLETPAPVHALPGFEDGWVTVQDASAQGCMTWLAPQNGEHILDLCAAPGGKTTHILEVAPEAQVVAVDIDEQRLSRVYDNLKRLGMKATVKQGDGRYPSQWCGEQQFDRILLDAPCSATGVIRRHPDIKWLRRDRDIPELAQLQSEILDAIWPHLKTGGTLVYATCSVLPEENSLQIKAFLQRTADAELCETGTPEQPGKQNLPGAEEGDGFFYAKLIKK”, the protein production result was “failed”. As for “MKKRIIFFLILLVSFRIFADYKSEYDNLLSARNIKGIAALLPKWEKAEPKNPELYIAYFNYYLLKGQRSTQSLDTYKKDNTNSLALVDQKTNKIAGYLNNNIWYEKEDVDKALSYLEKGLKFGKNRLDMYFGRIHILGEIGEYEKQSQKIIEVLKLGKEINHKWLWSMNEVIPSSESEHFFLISINEYYKNWLQKSSPQTLNAAEKTGEAQLKLYPKNIEVHNYLSLAYIGQGKFKEALNVLLKADKLANEDYVIIFNMGRCYEALKQYDKAKECYLRMKKNPNKQVQDMADQKLSELKKLTK”, the protein production result is “failed”. For “MKKRIKELTDLLNRYRYDYYTKDAPSVSDSDYDKLYRELVTLEQSYPEYVLQDSPTQQVGGTILKGFEKYRHQYPLFSLQDAFSREELDAFDKRVKAEFPNATYLAELKIDGLSISLSYENGFLQVGATRGDGNIGENITENIKKIKDIPYQLSEPLTITVRGEAYMSRQSFKAINEARQENGETEFANPRNAAAGTLRQLDTSVVAKRQLATFLYQEASPTARNQQNEVLAELADLGFSVNPYYQLTSSMDEIWDFIKTIEAKRDQLAYDIDGVVIKVNSLAMQEELGFTVKAPRWAIAYKFPAEEKEAEILSVDWTVGRTGVVTPTANLTPVQLAGTTVSRATLHNVDYIAEKDIRIGDTVIVYKAGDIIPAVLNVVMSKRNQQEVMLIPKLCPSCGSELVHFEDEVALRCINPLCPSLIQRSLEHFASRDAMNITGLGPAIVEKLFLAGFVHDVADIYQLTKEDFMQLDGIKEKSADKLLAAIEASKSNSAEKLLFGLGIRHIGSKVSRLILEVYGDISALLTAKEEEIARIDGLGSTIAQSLTQYFEQKTAAILVDELKTAGVNMHYSGQKVNSDAALFGLTVVLTGKLNQLNRNEAKDKLEALGAKVTGSVSKKTDLVIAGSDAGSKLEKAKSLGIRIEDEDWLRQL”, the protein production entry is “failed”. Consider “MKKRNISVPSKAYLALIIATLCWGGNTVAGKLAVGHISPMAFTFLRWVLAVAIIFAISVPQLIKDWPVVKQRLPYFFVLGSVGYTAFNVFLYTALQHTSAINAAVIQAGIPMVIFVLNFVLFRTRVLFGQIAGFCLTISGVALLASHGDPLSLLQLEMNVGDAVMLLAVLVYAIYTVILRWKPAVDWRTLMAIPAFFALLTSVPLVFFEMSRESLIWPDQKGWMLVVYAGIFASLIAQILYIKGVEQIGANRAGLFINLVPVFGTLLSVFVLSETLHTYQIAALFMALAGIAVAERKKSPAS”, for which the protein production entry was “failed”.
